Source: patent publication US20180155451A1 (published 2018)

T1: FcγRIIb (human, UniProt P31994 43-217)
T1 construct: extracellular domain; also called FcgRIIb; 2b
T1 sequence (looked up): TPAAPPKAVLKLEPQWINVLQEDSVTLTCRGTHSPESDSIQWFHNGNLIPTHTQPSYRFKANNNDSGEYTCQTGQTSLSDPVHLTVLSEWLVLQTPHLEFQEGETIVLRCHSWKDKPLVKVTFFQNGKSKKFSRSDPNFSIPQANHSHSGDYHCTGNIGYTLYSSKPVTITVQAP

T2: FcγRIIb extracellular domain with C-terminal His tag (human, UniProt P31994 43-217)
T2 construct: extracellular domain; also called 2b; FcgRIIb
T2 sequence (looked up): T1 sequence (looked up)

B1: GpH7-A5/GpH7-B3 variant (L234_07I)/GpL16-k0 (antibody, human IgG1, kappa)
heavy 1: not shown
heavy 2: not shown
light: DIVMTQSPLSLPVTPGEPASISCQASESLVHSNRNTYLHWYLQKPGQSPQLLIYKVSNRFSGVPDRFSGSGSGTDFTLKISRVEAEDVGVYYCSQNTHVPPTFGQGTKVEIERTVAAPSVFIFPPSDEQLKSGTASVVCLLNNFYPREAKVQWKVDNALQSGNSQESVTEQDSKDSTYSLSSTLTLSKADYEKHKVYACEVTHQGLSSPVTKSFNRGEC
notes: IgG1 heterodimer, mutation in the GpH7-B3 chain only; also called He Ab
B2: GpH7-A5/GpH7-B3 variant A330_16H/GpL16-k0 (antibody, human IgG1, kappa)
heavy 1: not shown
heavy 2: not shown
light: B1 light
notes: He Ab: alteration in one H chain only; also called He Ab
B3: GpH7-A5/GpH7-B3 variant A330_03V/GpL16-k0 (antibody, human IgG1, kappa)
heavy 1: not shown
heavy 2: not shown
light: B1 light
notes: as for B2
B4: GpH7-A5/GpH7-B3 variant (L235_13S)/GpL16-k0 (antibody, human IgG1, kappa)
heavy 1: not shown
heavy 2: not shown
light: B1 light
notes: as for B1
B5: GpH7-A5/GpH7-B3 variant (P271_03V)/GpL16-k0 (antibody, human IgG1, kappa)
heavy 1: not shown
heavy 2: not shown
light: B1 light
notes: as for B1
B6: GpH7-A5/GpH7-B3 variant (L234_19Q)/GpL16-k0 (antibody, human IgG1, kappa)
heavy 1: not shown
heavy 2: not shown
light: B1 light
notes: as for B1
B7: GpH7-A5/GpH7-B3 variant (L234_14T)/GpL16-k0 (antibody, human IgG1, kappa)
heavy 1: not shown
heavy 2: not shown
light: B1 light
notes: as for B1
B8: GpH7-A5/GpH7-B3 variant (L234_12R)/GpL16-k0 (antibody, human IgG1, kappa)
heavy 1: not shown
heavy 2: not shown
light: B1 light
notes: as for B1
B9: GpH7-A5/GpH7-B3 variant A330_07I/GpL16-k0 (antibody, human IgG1, kappa)
heavy 1: not shown
heavy 2: not shown
light: B1 light
notes: as for B2
B10: GpH7-A5/GpH7-B3 variant (S267_16H)/GpL16-k0 (antibody, human IgG1, kappa)
heavy 1: not shown
heavy 2: not shown
light: B1 light
notes: as for B1
B11: GpH7-A5/GpH7-B3 variant A330_06M/GpL16-k0 (antibody, human IgG1, kappa)
heavy 1: not shown
heavy 2: not shown
light: B1 light
notes: as for B2
B12: GpH7-A5/GpH7-B3 variant (L234_13S)/GpL16-k0 (antibody, human IgG1, kappa)
heavy 1: not shown
heavy 2: not shown
light: B1 light
notes: as for B1
B13: GpH7-A5/GpH7-B3 variant A330_15Y/GpL16-k0 (antibody, human IgG1, kappa)
heavy 1: not shown
heavy 2: not shown
light: B1 light
notes: as for B2
B14: GpH7-A5/GpH7-B3 variant (L235_01G)/GpL16-k0 (antibody, human IgG1, kappa)
heavy 1: not shown
heavy 2: not shown
light: B1 light
notes: as for B1
B15: GpH7-A5/GpH7-B3 variant (P271_02A)/GpL16-k0 (antibody, human IgG1, kappa)
heavy 1: not shown
heavy 2: not shown
light: B1 light
notes: as for B1
B16: GpH7-A5/GpH7-B3 variant (V266_19Q)/GpL16-k0 (antibody, human IgG1, kappa)
heavy 1: not shown
heavy 2: not shown
light: B1 light
notes: as for B1
B17: GpH7-A5/GpH7-B3 variant (L235_18N)/GpL16-k0 (antibody, human IgG1, kappa)
heavy 1: not shown
heavy 2: not shown
light: B1 light
notes: as for B1
B18: GpH7-A5/GpH7-B3 variant (L235_11K)/GpL16-k0 (antibody, human IgG1, kappa)
heavy 1: not shown
heavy 2: not shown
light: B1 light
notes: as for B1
B19: GpH7-A5/GpH7-B3 variant (L234_15Y)/GpL16-k0 (antibody, human IgG1, kappa)
heavy 1: not shown
heavy 2: not shown
light: B1 light
notes: IgG1 heterodimer, L234Y in the GpH7-B3 chain only; also called GpH7-A5/GpH7-B3-01-15Y/GpL16-k0; He Ab
B20: GpH7-A5/GpH7-B3 variant (S267_18N)/GpL16-k0 (antibody, human IgG1, kappa)
heavy 1: not shown
heavy 2: not shown
light: B1 light
notes: as for B1
B21: GpH7-A5/GpH7-B3 variant (L235_14T)/GpL16-k0 (antibody, human IgG1, kappa)
heavy 1: not shown
heavy 2: not shown
light: B1 light
notes: as for B1
B22: GpH7-A5/GpH7-B3 variant A330_08L/GpL16-k0 (antibody, human IgG1, kappa)
heavy 1: not shown
heavy 2: not shown
light: B1 light
notes: as for B2
B23: GpH7-A5/GpH7-B3 variant (L235_02A)/GpL16-k0 (antibody, human IgG1, kappa)
heavy 1: not shown
heavy 2: not shown
light: B1 light
notes: as for B1
B24: GpH7-A5/GpH7-B3 variant (L235_05P)/GpL16-k0 (antibody, human IgG1, kappa)
heavy 1: not shown
heavy 2: not shown
light: B1 light
notes: as for B1
B25: GpH7-A5/GpH7-B3 variant (L235_03V)/GpL16-k0 (antibody, human IgG1, kappa)
heavy 1: not shown
heavy 2: not shown
light: B1 light
notes: as for B1
B26: GpH7-A5/GpH7-B3 variant (L235_06M)/GpL16-k0 (antibody, human IgG1, kappa)
heavy 1: not shown
heavy 2: not shown
light: B1 light
notes: as for B1
B27: GpH7-A5/GpH7-B3 variant (S239_14T)/GpL16-k0 (antibody, human IgG1, kappa)
heavy 1: not shown
heavy 2: not shown
light: B1 light
notes: as for B1
B28: GpH7-A5/GpH7-B3 variant (S239_19Q)/GpL16-k0 (antibody, human IgG1, kappa)
heavy 1: not shown
heavy 2: not shown
light: B1 light
notes: as for B1
B29: GpH7-A5/GpH7-B3 variant (L235_19Q)/GpL16-k0 (antibody, human IgG1, kappa)
heavy 1: not shown
heavy 2: not shown
light: B1 light
notes: as for B1
B30: GpH7-A5/GpH7-B3 variant (L234_11K)/GpL16-k0 (antibody, human IgG1, kappa)
heavy 1: not shown
heavy 2: not shown
light: B1 light
notes: as for B1
B31: GpH7-A5/GpH7-B3 variant (P271_04F)/GpL16-k0 (antibody, human IgG1, kappa)
heavy 1: not shown
heavy 2: not shown
light: B1 light
notes: as for B1
B32: GpH7-A5/GpH7-B3 variant (L234_16H)/GpL16-k0 (antibody, human IgG1, kappa)
heavy 1: not shown
heavy 2: not shown
light: B1 light
notes: as for B1
B33: GpH7-A5/GpH7-B3 variant A330_04F/GpL16-k0 (antibody, human IgG1, kappa)
heavy 1: not shown
heavy 2: not shown
light: B1 light
notes: as for B2

What was measured:
FcγRIa = molecular target: T3, FcγRIa (human, UniProt P12314 16-292); experiment: SPR, captured antibody; relative to GpH7-A5/GpH7-B3/GpL16-k0
T3 construct: extracellular domain; also called FcgRI; 1a

FcγRIIb = molecular target: T1, FcγRIIb; experiment: as above
[1] = molecular target: T4, FcγRIIIa extracellular domain with C-terminal His tag (human, UniProt P08637 17-208); experiment: SPR, relative to GpH7-A5/GpH7-B3/GpL16-k0
T4 construct: extracellular domain; also called 3a; FcgRIIIa
Procedure: (§1) The heterodimerized antibodies He Abs in which one of the H chains was introduced with an alteration were assayed for their binding activities to each activating FcγR and inhibitory FcγR according to the method described in Example 4. […] The activating FcγRs in FIGS. 26, 27, 28, and 29 are FcγRIa, FcγRIIa (R), FcγRIIa (H), and FcγRIIIa, respectively.
(§2) Analysis of interaction between objective antibody and the FcγR was carried out using Biacore T100 (GE Healthcare). HBS-EP+ (GE Healthcare) was used as the running buffer, and the measurement temperature was set to 25° C. Chips produced by immobilizing the antigen peptide by the amine coupling method to a Series S Sencor Chip CM5 (GE Healthcare), or alternatively, chips produced by allowing preliminarily biotinylated antigen peptides to interact with and immobilize onto a Series S Sensor Chip SA (certified) (GE Healthcare) were used. Antibodies of interest were captured onto an antigen peptide-immobilized chip, and allowed to interact to each FcγR diluted with running buffer. To regenerate and repeatedly use the chip, the antibodies captured on the chip were washed off by reacting 10 mM glycine-HCl, pH 1.5.

[2] = molecular target: T2, FcγRIIb extracellular domain with …; experiment: SPR, relative to GpH7-A5/GpH7-B3/GpL16-k0
Procedure: as §1, §2

T3 sequence (P12314 16-292): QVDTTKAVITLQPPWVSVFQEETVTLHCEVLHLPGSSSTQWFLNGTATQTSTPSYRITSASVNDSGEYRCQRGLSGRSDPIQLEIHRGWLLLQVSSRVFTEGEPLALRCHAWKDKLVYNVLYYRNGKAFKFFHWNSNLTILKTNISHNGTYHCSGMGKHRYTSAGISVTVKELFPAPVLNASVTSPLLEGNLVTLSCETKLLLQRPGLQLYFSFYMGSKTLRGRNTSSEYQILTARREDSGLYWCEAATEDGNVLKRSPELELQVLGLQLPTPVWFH
T4 sequence (P08637 17-208): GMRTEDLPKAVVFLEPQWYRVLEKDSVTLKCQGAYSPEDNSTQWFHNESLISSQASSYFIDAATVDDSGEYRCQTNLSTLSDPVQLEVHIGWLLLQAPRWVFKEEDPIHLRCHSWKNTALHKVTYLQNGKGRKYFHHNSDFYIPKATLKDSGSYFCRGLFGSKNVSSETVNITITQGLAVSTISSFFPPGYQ

Binder | He/Con_1a (FcγRIa) | He/Con_2b (FcγRIIb) | He/Con_3a [1] [control=100] | He/Con_2b [2] [control=100]
B1 | 103 relative, HeCon Ab = 100 | 80.9 relative, HeCon Ab = 100 | – | –
B2 | – | – | 104 | 87.6
B3 | – | – | 101 | 52.4
B4 | 90.5 relative, HeCon Ab = 100 | 48.2 relative, HeCon Ab = 100 | – | –
B5 | 102 relative, HeCon Ab = 100 | 74.8 relative, HeCon Ab = 100 | – | –
B6 | 95.7 relative, HeCon Ab = 100 | 60.3 relative, HeCon Ab = 100 | – | –
B7 | 98.6 relative, HeCon Ab = 100 | 62.5 relative, HeCon Ab = 100 | – | –
B8 | 91.8 relative, HeCon Ab = 100 | 18.9 relative, HeCon Ab = 100 | – | –
B9 | – | – | 103 | 67.1
B10 | 100 relative, HeCon Ab = 100 | 65.9 relative, HeCon Ab = 100 | – | –
B11 | – | – | 142 | 80.5
B12 | 96.9 relative, HeCon Ab = 100 | 59.3 relative, HeCon Ab = 100 | – | –
B13 | – | – | 125 | 95
B14 | 87.2 relative, HeCon Ab = 100 | 35.4 relative, HeCon Ab = 100 | – | –
B15 | 104 relative, HeCon Ab = 100 | 88 relative, HeCon Ab = 100 | – | –
B16 | 100 relative, HeCon Ab = 100 | 89.2 relative, HeCon Ab = 100 | – | –
B17 | 92.2 relative, HeCon Ab = 100 | 54.9 relative, HeCon Ab = 100 | – | –

Binder | He/Con_1a (FcγRIa) | He/Con_2b (FcγRIIb) | He/Con_3a [1] [control=100] | He/Con_2b [2] [control=100]
B18 | 79.9 relative, HeCon Ab = 100 | 6.3 relative, HeCon Ab = 100 | – | –
B19 | 100 relative, HeCon Ab = 100 | 96.3 relative, HeCon Ab = 100 | – | –
B20 | 102 relative, HeCon Ab = 100 | 47.7 relative, HeCon Ab = 100 | – | –
B21 | 88.7 relative, HeCon Ab = 100 | 46.8 relative, HeCon Ab = 100 | – | –
B22 | – | – | 124 | 70.5
B23 | 92.2 relative, HeCon Ab = 100 | 63 relative, HeCon Ab = 100 | – | –
B24 | 94.7 relative, HeCon Ab = 100 | 54.7 relative, HeCon Ab = 100 | – | –
B25 | 94.7 relative, HeCon Ab = 100 | 66.4 relative, HeCon Ab = 100 | – | –
B26 | 98 relative, HeCon Ab = 100 | 81 relative, HeCon Ab = 100 | – | –
B27 | 101 relative, HeCon Ab = 100 | 97.3 relative, HeCon Ab = 100 | – | –
B28 | 101 relative, HeCon Ab = 100 | 86.1 relative, HeCon Ab = 100 | – | –
B29 | 94 relative, HeCon Ab = 100 | 42.6 relative, HeCon Ab = 100 | – | –
B30 | 91.8 relative, HeCon Ab = 100 | 16.2 relative, HeCon Ab = 100 | – | –
B31 | 102 relative, HeCon Ab = 100 | 59.5 relative, HeCon Ab = 100 | – | –
B32 | 94 relative, HeCon Ab = 100 | 59.4 relative, HeCon Ab = 100 | – | –
B33 | – | – | 147 | 92.8
